Assay results reported in PMC11852929 (Journal of Virology, 2025).

Target: T1, SARS-CoV-2 Omicron BA.5 S ectodomain trimer (BA.5-Spike-6P) (SARS-CoV-2 Omicron BA.5, S375F | D405N | R408S | K417N | Q498R | N501Y | Y505H)
T1 construct: also called BA.5 spike (S) trimer; BA.5 S trimer
Assay: cryo-EM structure
Conditions: both partners purified

B1: ORB10 fragment antigen-binding region (Fab) (Fab, V domains shown)
VH: QVQLQQSGAELVRPGSSVKISCKASGYAFSNYWMNWVKQRPGEGLEWIGQIYPGDGDTDYNGKFKGRATLTADKSSSTAYMQLSSLTSEDSAVYFCARGDDGYYVYFDYWGQGTTLTVSS
VL: EIVLTQSPALMAASPGEKVTITCSVSSSIGSNNLHWYQQKSETSPKPWIYGTSNLASGVPVRFSGSGSGTSYSLTISTMEAEDAATYYCQQWSGYPLTFGGGTKLEIK
notes: also called ORB10 Fab
stoichiometry N: 2 Fabs per S trimer
